Earlier results in publication PMC11083953.

What was measured:
CD38 (Homo sapiens) = CD38 (Homo sapiens) (UniProt P28907)
CD20 (Homo sapiens) = CD20 (Homo sapiens) (UniProt P11836)
Sequence of CD20 (Homo sapiens) (P11836 whole entry): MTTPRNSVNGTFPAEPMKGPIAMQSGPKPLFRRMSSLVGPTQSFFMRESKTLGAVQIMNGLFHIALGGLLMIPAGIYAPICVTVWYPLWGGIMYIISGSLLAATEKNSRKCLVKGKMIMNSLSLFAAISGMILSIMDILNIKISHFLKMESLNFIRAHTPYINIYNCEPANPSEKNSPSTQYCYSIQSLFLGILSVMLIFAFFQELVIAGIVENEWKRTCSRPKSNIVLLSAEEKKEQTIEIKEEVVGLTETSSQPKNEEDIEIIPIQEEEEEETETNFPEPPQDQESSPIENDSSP

| Kd (CD38 (Homo sapiens)) | Substance | Kd (CD20 (Homo sapiens)) |
| --- | --- | --- |
| 4.36 nM | daratumumab |  |
|  | rituximab | 8 nM |
